Here are results for 3 molecules from patent CN116836273A (DONGGUAN PENGZHI BIOTECHNOLOGY CO LTD, dated 2023).

Substitutions are numbered along the chain they refer to.

T1: 血清淀粉样蛋白A (Serum amyloid A, SAA) (UniProt P0DJI8 19-122, limits assumed)
T1 construct: Bought antigen
T1 sequence (looked up): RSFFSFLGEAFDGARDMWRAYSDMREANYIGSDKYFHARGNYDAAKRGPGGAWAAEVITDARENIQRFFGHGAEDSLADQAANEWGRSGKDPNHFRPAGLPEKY

B1: Anti-SAA 9G5mut1 (antibody, mouse IgG2a, kappa)
heavy: EVHLQQSGAELVTPGASVKLSCTASGFNIKDTYMHWVKQRPEQGLEWIGRIDPANGNTKYDPKFQGKATMTADTSSNTAYLQLSSLTSEDTAVYYCARGGNYDWGQGTTLSVSSAKTTAPSVYPLAPVCGDTTGSSVTLGCLVKGYFPEPVTLTWNSGSLSSGVHTFPAVLQSDLYTLSSSVTVTSSTWPSQSITCNVAHPASSTKVDKKIEPRGPTIKPCPPCKCPAPNLLGGPSVFIFPPKIKDVLMISLSPIVTCVVVDVSEDDPDVQISWFVNNVEVHTAQTQTHREDYNSTLRVVSALPIQHQDWMSGKEFKCKVNNKDLPAPIERTISKPKGSVRAPQVYVLPPPEEEMTKKQVTLTCMVTDFMPEDIYVEWTNNGKTELNYKNTEPVLDSDGSYFMYSKLRVEKKNWVERNSYSCSVVHEGLHNHHTTKSFSRTPGK
light: DIVLTQSPASLAVSLGQRATISCKASQSVDYDGYSYLNWYQQKPGQPPKLLISAASNLESGIPARFSGSGSGTDFTLNIHPVEEEDAATYYCQQSNEDPYTFGGGTKLQIKRADAAPTVSIFPPSSEQLTSGGASVVCFLNNFYPKDINVKWKIDGSERQNGVLNSWTDQDSKDSTYSMSSTLTLTKDEYERHNSYTCEATHKTSTSPIVKSFNRNEC
notes: Recombinant monoclonal antibody made in CHO cells, a mutant of Anti-SAA 9G5
B2: Anti-SAA 9G5mut2 (antibody, mouse IgG2a, kappa)
heavy: B1 heavy
light: B1 light with I21L
notes: as for B1
B3: Anti-SAA 4B3mut1 (antibody, mouse IgG1, kappa, V domains shown)
VH: QVQLQQSGAELVKPGASVKLSCKTSGYTFTNKYIYWLKQRPGQGLEWIGEIDPSNGATKFNEKFTNKATLTVDRSSTTAYVELSSLTSEDSAVYYCARGAYWGHGTLVTVSA
VL: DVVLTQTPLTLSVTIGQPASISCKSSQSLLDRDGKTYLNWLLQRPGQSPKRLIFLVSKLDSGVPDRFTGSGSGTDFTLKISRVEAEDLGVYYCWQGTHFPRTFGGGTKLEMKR
notes: Recombinant monoclonal antibody made in CHO cells, a mutant of Anti-SAA 4B3

One experiment concerns the target T1, 血清淀粉样蛋白A (Serum amyloid A, SAA). As to the kind of experiment: BLI, antibody captured on AMC sensor, SAA in solution.
Consider B1, for which the dissociation constant (Kd) (commonly the constant that tells how readily two partners part at equilibrium) worked out at 0.906 nM; the dissociation rate constant (koff) – broadly, a measure of how fast the partners let go of each other – came to 6.67e-05 s⁻¹; the kon (as a rule, the second-order rate constant of association) came to 73600 M⁻¹ s⁻¹.
The like results for B2 were, in that order, 0.875 nM, 6.52e-05 s⁻¹ and 74500 M⁻¹ s⁻¹.
For B3 the same measures were 0.897 nM, 6.75e-05 s⁻¹ and 75200 M⁻¹ s⁻¹.

For a further experiment the target is unchanged. As to the kind of experiment: indirect ELISA, SAA coated at 2 ug/ml, antibody at 15 ng/ml. A general note: An ELISA detects its analyte on a solid surface through an enzyme-linked reagent.
For the molecule B1, the OD was 1.23 OD450 (ref. 630 nm).
The same measure, in the same setting: next, B2: 1.3 OD450 (ref. 630 nm); B3: 1.13 OD450 (ref. 630 nm).

The target is the same in the next experiment. As to the kind of experiment: indirect ELISA, SAA coated at 2 ug/ml, antibody at 30 ng/ml.
As to B1, the OD was 1.95 OD450 (ref. 630 nm).
Regarding B2, the OD is 2.01 OD450 (ref. 630 nm).
As to B3, the OD is 1.51 OD450 (ref. 630 nm).

Another experiment shares this target. As to the kind of experiment: indirect ELISA, SAA coated at 2 ug/ml, antibody at 60 ng/ml.
Consider B1, for which the OD was 2.26 OD450 (ref. 630 nm).
The same measure, in the same setting: next, B2: 2.31 OD450 (ref. 630 nm); B3: 2.21 OD450 (ref. 630 nm).

For the next experiment the target is unchanged. As to the kind of experiment: indirect ELISA, SAA coated at 2 ug/ml, antibody at 7.5 ng/ml.
Turning to B1, the OD was 0.767 OD450 (ref. 630 nm).
Still for that read-out and setting: the figure for B2 is 0.801 OD450 (ref. 630 nm); for B3 it is 0.635 OD450 (ref. 630 nm).

The target is the same in a further experiment. The experiment is described as follows: indirect ELISA, SAA coated at 2 ug/ml, antibody at 3.75 ng/ml.
In the case of B1, the OD was 0.474 OD450 (ref. 630 nm).
The same measure, in the same setting: next, B2: 0.501 OD450 (ref. 630 nm); B3: 0.386 OD450 (ref. 630 nm).

Another experiment shares this target. As to the kind of experiment: indirect ELISA, SAA coated at 2 ug/ml, antibody at 0 ng/ml (blank).
B1: the OD is 0.011 OD450 (ref. 630 nm).
The same measure, in the same setting: next, B2: 0.011 OD450 (ref. 630 nm); B3: 0.007 OD450 (ref. 630 nm).
